# Laboratory results reported in IntAct's records for PubMed 16959570.
# B1: FK506-binding protein 4 (Saccharomyces cerevisiae), Q06205 (parent)
# chain: MSDMLPLATYSLNVEPYSPTPALNFKIPVTIRITMAAIDPEPFDDDKKPSTLRIIKRNPELTRGEYYNQDNNDGLEEDESESEQEADVPKRSVKSKKGKAVEQSESEDSEDENEIDDEFEECVLLTLSPKGQYQQALDITIAPEEDVQFVVTGSYTISLTGNYVKHPFDNSSDSDEDEEDYYSDEESSNGEEEEEEEEEDDEELSSGDDDLDDLVDASDIESRLDELVKKDEKKKNNKKDSKRKHEEDEEESAKPAEKKQTTKKDKKAEKVKDSEESKPKPKTKLLEGGIIIEDRVTGKGPHAKKGTRVGMRYVGKLKNGKVFDKNTKGKPFVFKLGQGEVIKGWDIGVAGMAVGGERRIVIPAPYAYGKQALPGIPANSELTFDVKLVSMK
# Variants of: B1
# Conditions: with h3_yeast HHT1, P61830
row,effect of a mutation on the interaction,Variant
1,disrupting interaction,F323A
